# Reference: patent publication US12365732 (23ANDME, dated 2025)
# Numbering of substitutions follows the chain as printed. Names and notes keep the numbering of the source.
# T1: cynomolgus monkey CD96 on cynomolgus monkey PBMCs (cynomolgus monkey, UniProt A0A2K5TWV6 22-569)
# T1 construct: whole, on cells
# T1 sequence: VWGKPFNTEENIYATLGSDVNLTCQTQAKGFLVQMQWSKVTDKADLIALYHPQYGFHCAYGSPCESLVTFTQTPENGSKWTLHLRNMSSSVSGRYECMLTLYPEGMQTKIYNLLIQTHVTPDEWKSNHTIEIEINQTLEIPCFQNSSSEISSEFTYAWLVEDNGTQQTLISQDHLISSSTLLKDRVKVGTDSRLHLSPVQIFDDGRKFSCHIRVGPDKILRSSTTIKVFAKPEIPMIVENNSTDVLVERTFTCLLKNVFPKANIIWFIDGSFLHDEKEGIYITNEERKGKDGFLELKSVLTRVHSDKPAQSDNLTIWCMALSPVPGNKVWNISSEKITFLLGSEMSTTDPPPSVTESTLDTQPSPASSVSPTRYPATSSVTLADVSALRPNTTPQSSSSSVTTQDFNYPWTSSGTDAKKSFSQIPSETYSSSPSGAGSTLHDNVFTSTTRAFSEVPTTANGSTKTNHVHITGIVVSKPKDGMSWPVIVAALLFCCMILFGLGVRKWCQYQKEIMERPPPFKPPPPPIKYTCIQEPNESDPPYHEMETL
# T2: recombinant hu-CD96 (M1-M503-polyHis) (human, UniProt P40200 22-519)
# T2 construct: also called hu-CD96-his
# T2 sequence: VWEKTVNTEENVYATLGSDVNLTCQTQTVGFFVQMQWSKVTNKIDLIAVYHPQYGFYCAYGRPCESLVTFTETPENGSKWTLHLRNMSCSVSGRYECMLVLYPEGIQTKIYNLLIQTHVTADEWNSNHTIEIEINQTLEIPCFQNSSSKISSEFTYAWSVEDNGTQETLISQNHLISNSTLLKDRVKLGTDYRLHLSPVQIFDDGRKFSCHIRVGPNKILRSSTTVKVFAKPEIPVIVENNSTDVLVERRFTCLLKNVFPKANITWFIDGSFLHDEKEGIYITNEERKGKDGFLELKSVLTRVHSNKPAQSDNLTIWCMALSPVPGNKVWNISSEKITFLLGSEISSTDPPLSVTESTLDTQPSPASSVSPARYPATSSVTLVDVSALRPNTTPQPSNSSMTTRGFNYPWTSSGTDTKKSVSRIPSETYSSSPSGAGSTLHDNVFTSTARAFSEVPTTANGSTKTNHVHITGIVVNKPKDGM
# B1: h10G1 IgG (humanized 10G1) (antibody, V domains shown)
# VH: EIQLVQSGSELKKPGASVKVSCKASGYPFTTYGMSWVRQAPGQGLEWMGWINTDSGVPTYADDFKGRFVFSLDTSVSTAYLQISSLKAEDTAVYFCARNIYYGWGNFDYWGQGTLVTVSS
# VL: EIVMTQSPDFQSVTPKEKVTITCRASQDIYRNLHWYQQKPDQTPKLLIKHASDSISGIPSRFSGSGSGTDFTLTINSLEAEDAAAYYCLQGYSMPYTFGGGTKVEIKG
# notes: human IgG1 N297G
# B2: mAb1.v7.NGS9 IgG (antibody, V domains shown)
# VH: EVQLVQSGAEVKKPGASVKVSCKASGFTFTNNFMHWVRQAPGQGLEWIGMIHANSGITNINEKFKNRVTMTTDTSTSTAYMELRSLRSEDTAVYYCRSDGVYEGYFDYWGQGTLVTVSS
# VL: DIQLTQSPSSLSASVGDRVTITCKASQNVGTAIVWYQQKPGKAPKVLIYSASTRYTGVPSRFSGSGSGTDFTLTISSLQPEDFATYYCQQYSSSPLTFGQGTKVEIKG
# notes: human IgG1 N297G
# B3: mAb1.v7.NGS11 IgG (antibody, V domains shown)
# VH: B2 VH with M50F
# VL: B2 VL
# notes: human IgG1 N297G
# B4: mAb1.v7.NGS10 IgG (antibody, V domains shown)
# VH: B2 VH with M50F, V101I
# VL: B2 VL
# notes: human IgG1 N297G
# B5: 7E5, purified hybridoma antibody (antibody, V domains shown)
# VH: QVQLKESGPGLVAPSQSLSIICTVSGFSLTNYGIHWIRQPPGKGLEWLGIIWAGGSTNYNSALMSRLTISKDNSKSQVFLKMNSLQTNDTAIYYCARVSMMGFAYWGQGTLVTVSA
# VL: QAVVTQESALTTSPGETVTLTCRSSTGAVTTSNYANWVQEKPDHLFTGLIGGTNNRAPGVPARFSGSLIGDKAALTITGAQTEDEAIYFCSLWYGSHWVFGGGTKLTVL
# notes: murine hybridoma IgG
# B6: 10G1 (clone 10G1.3G8), purified hybridoma antibody (antibody, V domains shown)
# VH: QIQLVQSGPELKKPGETVKISCKASGYPFTTYGMSWVKQAPGKGLKWMGWINTDSGVPTYADDFKGRFAFSLETSANTAYLQINSLKNEDAATYFCARNIYYGWGNFDYWGQGTILTVSS
# VL: DILMTQSPTTLSVTPGETVSLSCRASQDIYRNLHWYQQKSQGTPRLLIKHASDSISGIPSRFTGSGSGTDFTLSINSVKPEDEGIYYCLQGYSMPYTFGGGTKLEIK
# notes: murine hybridoma IgG
# B7: 9H4, purified hybridoma antibody (antibody, V domains shown)
# VH: EVQLLETGGGLVKSGGSLKLSCAASGFTFSDYYMYWVRQTPEKRLEWVAAISDDGTYTYYPDSVKGRFTISRDNANNYLYLQMSSLKSEDTAIYYCAKAGSYDYFDVWGAGTTVTVSS
# VL: DIVLTQSPASLAVSLGQRAIISCKASQSVTFADTGLMHWYQQKPGQQPKLLIYRASNLEVGVPTRFSGSGSGTDFTLNIHPVEEEDVATYYCQQSREYPWTFGGGTKLEIK
# notes: murine hybridoma IgG
# Molecular target: T1, cynomolgus monkey CD96 on cynomolgus …
# Test: FACS, Ab 3.2 nM
# Experimental: The ability of the anti-CD96 antibodies to bind primary immune cells from human and cynomolgus monkey with lower level of receptor expression was measured. Human PBMCs (StemCell Technologies, catalog #70025) and cynomolgus monkey PBMCs (Primate Biologicals, catalog #CM-MC) were incubated with human TruStain FcX (Biolegend, catalog #422302) for 10 minutes at 4° C., followed by incubation with an anti-CD96 antibody for 20 minutes at 4° C. Cells were washed and the anti-CD96 antibody binding was detected by incubation with anti-mouse IgG-PE (Thermo Fisher, catalog #M30204) or anti-human IgG (Fab) 2-PE (Thermo Fisher, catalog #H10104) for 20 minutes at 4° C. Cells were washed, and immune subtypes were labeled with anti-CD3 (BD, catalog #557705), anti-CD4 (Biolegend, catalog #317424) and anti-CD8 (BD, catalog #557760) for 20 minutes at 4° C. Cell binding was analyzed by flow cytometry with a CytoFLEX (Beckman Coulter). Binding curves were calculated as a percentage of cells positive for bound antibody in the cell type of interest.
row,Binder,% positive [%]
1,B1,58.1
2,B2,77.9
3,B3,78.4
4,B4,76.7

# Molecular target: T2, recombinant hu-CD96 (M1-M503-polyHis)
# Test: ELISA, blocks hu-CD96-his binding to coated CD155-hFc
# Experimental: CD96 binding of purified hybridoma antibodies: The hu-CD96 and cy-CD96 antigen binding ELISA was performed on the purified hybridoma antibodies. Briefly, 96-well MAXISORP® flat bottom plates (Thermo Fisher Scientific, Waltham, MA; Cat #439454) were coated overnight at 4° C. with 0.5 µg/mL of hu-CD96D1 D3-hFc and cynomolgus monkey CD96D1 D3-hFc in PBS. After removing the coating solution, unspecific binding was blocked by PBS containing 1% bovine serum albumin (blocking buffer) and incubation at room temperature for one hour. Plates were then washed three times with PBS and 0.05% TWEEN®-20 (wash buffer). Serial dilution of purified antibodies in PBS containing 0.5% BSA and 0.05% Tween 20 (ELISA buffer) was added to individual wells followed by incubation at room temperature for one hour with agitation. Plates were washed three times with wash buffer, then 100 µL/well of anti-mouse IgG-HRP (Thermo Fisher Scientific, Waltham, MA; Cat #626520) in ELISA buffer was added. […] Enzymatic color development was stopped with 50 µL/well of TMB stop solution (VWR/Avantor, Radnor, PA, USA; Cat #95059-200). Plates were analyzed with a SpectraMax i3X plate reader (Molecular Devices LLC, San Jose, CA, USA) at 450 nm.
# CD155 receptor blocking of purified hybridoma antibodies: Human CD155 blocking ELISA was performed on purified hybridoma antibodies following the same protocol as described for CD96 (above), except that serial dilution of purified antibodies 50 µL/well (starting at 1 µM, 1:5 dilution) in assay buffer was added into the reaction.
row,Binder,IC50 [nM]
1,B5,2.15
2,B6,2.59
3,B7,2.23
